# Assay results published in patent publication US20200085917A1.
# Key:
# Experiment in all cases: GST pull-down, LC-MS/MS
# [1] = molecular target: Acad8_IPI:IPI00274222.2 (mouse) (UniProt Q9D7B6)
# [2] = molecular target: Pptc7_IPI:IPI00421081.3 (mouse) (UniProt Q6NVE9)
# [3] = molecular target: Mtch1_IPI:IPI00137173.1 (mouse) (UniProt Q791T5)
# [4] = molecular target: Dci_IPI:IPI00114416.1 (mouse) (UniProt P42125)
# [5] = molecular target: Hsd17b10_IPI:IPI00320847.1 (mouse) (UniProt O08756)
# [6] = molecular target: Coq5_IPI:IPI00379695.2 (mouse) (UniProt Q9CXI0)
# [7] = molecular target: Chchd4_IPI:IPI00124389.1 (mouse) (UniProt Q8VEA4)
# [8] = molecular target: Fahd1_IPI:IPI00468850.1 (mouse) (UniProt Q8R0F8)
# [9] = molecular target: Cisd3_IPI:IPI00345740.4 (mouse) (UniProt B1AR13)
# [10] = molecular target: 2900010M23Rik_IPI:IPI00133350.1 (mouse)
# [11] = molecular target: Agk_IPI:IPI00113606.2 (mouse) (UniProt Q9ESW4)
# [12] = molecular target: Mrpl43_IPI:IPI00278781.1 (mouse) (UniProt Q99N89)
# [13] = molecular target: Fis1_IPI:IPI00132217.1 (mouse) (UniProt Q9CQ92)
# [14] = molecular target: Hspa5_IPI:IPI00319992.1 (mouse) (UniProt P20029)
# [15] = molecular target: Arf2_IPI:IPI00135730.1 (mouse) (UniProt Q8BSL7)
# [16] = molecular target: 5730469M10Rik_IPI:IPI00187272.3 (mouse)
# [17] = molecular target: Hmgcl_IPI:IPI00379694.4 (mouse) (UniProt P38060)
# [18] = molecular target: Synj2bp_IPI:IPI00109206.1 (mouse) (UniProt Q9D6K5)
# [19] = molecular target: Nsf_IPI:IPI00656325.2 (mouse) (UniProt P46460)
# [20] = molecular target: Mpst_IPI:IPI00604945.2 (mouse) (UniProt Q99J99)
# [21] = molecular target: Mthfd1l_IPI:IPI00228113.5 (mouse) (UniProt Q3V3R1)
# [22] = molecular target: Rab2a_IPI:IPI00137227.1 (mouse) (UniProt P53994)
# [23] = molecular target: Mtx1_IPI:IPI00112327.1 (mouse) (UniProt P47802)
# [24] = molecular target: Rdh14_IPI:IPI00112377.1 (mouse) (UniProt Q9ERI6)
# [25] = molecular target: Sfxn1_IPI:IPI00115454.3 (mouse) (UniProt Q99JR1)
# [26] = molecular target: Asrgl1_IPI:IPI00223875.1 (mouse) (UniProt Q8C0M9)
# [27] = molecular target: Rhot1_IPI:IPI00123186.4 (mouse) (UniProt Q8BG51)
# [28] = molecular target: Pycr2_IPI:IPI00123278.1 (mouse) (UniProt Q922Q4)
# [29] = molecular target: Mrpl14_IPI:IPI00133778.1 (mouse) (UniProt Q9D1I6)
# [30] = molecular target: Ppt1_IPI:IPI00331318.2 (mouse) (UniProt O88531)
# [31] = molecular target: Dnajc19_IPI:IPI00111111.5 (mouse) (UniProt Q9CQV7)
# [32] = molecular target: Nup210l_IPI:IPI00356451.5 (mouse) (UniProt Q9D2F7)
# [33] = molecular target: Ociad2_IPI:IPI00112139.1 (mouse) (UniProt Q9D8W7)
# Ociad2_IPI:IPI00112139.1 (mouse), sequence (Q9D8W7 whole entry): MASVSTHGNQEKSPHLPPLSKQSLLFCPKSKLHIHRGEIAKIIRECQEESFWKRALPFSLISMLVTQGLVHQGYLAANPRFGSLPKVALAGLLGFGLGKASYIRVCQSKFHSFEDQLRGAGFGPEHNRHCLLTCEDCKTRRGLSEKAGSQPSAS
# Cisd3_IPI:IPI00345740.4 (mouse), sequence (B1AR13 whole entry): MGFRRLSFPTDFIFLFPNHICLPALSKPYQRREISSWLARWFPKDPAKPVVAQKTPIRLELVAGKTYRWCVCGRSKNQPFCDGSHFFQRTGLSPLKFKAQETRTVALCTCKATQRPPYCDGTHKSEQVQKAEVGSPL
# Mtch1_IPI:IPI00137173.1 (mouse), sequence (Q791T5 whole entry): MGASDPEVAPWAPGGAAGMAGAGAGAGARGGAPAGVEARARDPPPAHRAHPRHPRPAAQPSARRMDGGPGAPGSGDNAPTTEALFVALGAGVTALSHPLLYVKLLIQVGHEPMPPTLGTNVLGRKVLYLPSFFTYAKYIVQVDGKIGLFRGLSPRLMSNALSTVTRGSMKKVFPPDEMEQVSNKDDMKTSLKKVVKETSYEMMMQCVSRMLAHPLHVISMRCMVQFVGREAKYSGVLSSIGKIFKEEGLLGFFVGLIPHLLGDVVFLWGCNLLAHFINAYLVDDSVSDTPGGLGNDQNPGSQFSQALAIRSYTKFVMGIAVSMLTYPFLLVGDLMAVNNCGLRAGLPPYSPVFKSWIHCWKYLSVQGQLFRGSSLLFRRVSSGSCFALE
# Fahd1_IPI:IPI00468850.1 (mouse), sequence (Q8R0F8 25-221 limits assumed): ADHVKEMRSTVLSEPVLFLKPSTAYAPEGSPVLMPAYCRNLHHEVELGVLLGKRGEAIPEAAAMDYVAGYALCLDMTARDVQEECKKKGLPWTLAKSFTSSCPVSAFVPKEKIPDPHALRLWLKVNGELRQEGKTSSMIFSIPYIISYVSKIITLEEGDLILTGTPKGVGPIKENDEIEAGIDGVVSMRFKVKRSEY
# Mpst_IPI:IPI00604945.2 (mouse), sequence (Q99J99 2-297 limits assumed): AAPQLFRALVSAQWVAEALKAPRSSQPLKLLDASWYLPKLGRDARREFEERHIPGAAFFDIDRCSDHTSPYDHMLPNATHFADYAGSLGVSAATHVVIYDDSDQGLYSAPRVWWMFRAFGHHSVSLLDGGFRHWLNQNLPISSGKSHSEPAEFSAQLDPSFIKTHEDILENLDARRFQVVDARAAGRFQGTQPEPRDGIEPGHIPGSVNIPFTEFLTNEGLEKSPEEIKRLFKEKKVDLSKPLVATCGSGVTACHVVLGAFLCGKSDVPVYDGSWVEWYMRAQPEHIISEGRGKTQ
# Fis1_IPI:IPI00132217.1 (mouse), sequence (Q9CQ92 whole entry): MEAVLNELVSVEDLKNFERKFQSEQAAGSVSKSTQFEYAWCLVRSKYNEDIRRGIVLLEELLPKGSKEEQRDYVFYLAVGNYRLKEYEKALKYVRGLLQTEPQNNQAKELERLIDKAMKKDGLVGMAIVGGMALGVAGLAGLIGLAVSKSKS
# Pptc7_IPI:IPI00421081.3 (mouse), sequence (Q6NVE9 75-310 limits assumed): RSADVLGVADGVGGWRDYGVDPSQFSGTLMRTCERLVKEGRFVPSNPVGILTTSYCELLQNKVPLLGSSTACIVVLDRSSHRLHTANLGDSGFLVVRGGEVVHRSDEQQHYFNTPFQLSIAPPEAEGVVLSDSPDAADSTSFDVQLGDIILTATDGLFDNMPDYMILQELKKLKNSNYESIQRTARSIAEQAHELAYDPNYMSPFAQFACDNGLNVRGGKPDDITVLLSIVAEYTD
# Pycr2_IPI:IPI00123278.1 (mouse), sequence (Q922Q4 2-320 limits assumed): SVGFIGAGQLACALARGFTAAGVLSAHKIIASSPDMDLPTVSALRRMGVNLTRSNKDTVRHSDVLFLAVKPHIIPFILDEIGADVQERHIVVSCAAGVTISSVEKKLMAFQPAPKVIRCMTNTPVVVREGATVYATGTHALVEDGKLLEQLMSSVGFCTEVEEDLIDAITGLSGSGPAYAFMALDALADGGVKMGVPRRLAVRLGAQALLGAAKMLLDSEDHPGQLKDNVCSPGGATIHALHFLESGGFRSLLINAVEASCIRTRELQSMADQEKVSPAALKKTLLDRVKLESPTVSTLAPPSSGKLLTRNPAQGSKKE
# 5730469M10Rik_IPI:IPI00187272.3 (mouse), sequence (Q9CYH2 whole entry): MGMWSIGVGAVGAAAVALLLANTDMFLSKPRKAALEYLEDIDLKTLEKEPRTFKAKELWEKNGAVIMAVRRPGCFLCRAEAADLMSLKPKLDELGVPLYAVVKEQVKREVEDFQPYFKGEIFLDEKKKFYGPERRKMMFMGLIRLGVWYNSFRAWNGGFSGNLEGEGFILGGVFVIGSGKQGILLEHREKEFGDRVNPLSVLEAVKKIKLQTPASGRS
# Mtx1_IPI:IPI00112327.1 (mouse), sequence (P47802 whole entry): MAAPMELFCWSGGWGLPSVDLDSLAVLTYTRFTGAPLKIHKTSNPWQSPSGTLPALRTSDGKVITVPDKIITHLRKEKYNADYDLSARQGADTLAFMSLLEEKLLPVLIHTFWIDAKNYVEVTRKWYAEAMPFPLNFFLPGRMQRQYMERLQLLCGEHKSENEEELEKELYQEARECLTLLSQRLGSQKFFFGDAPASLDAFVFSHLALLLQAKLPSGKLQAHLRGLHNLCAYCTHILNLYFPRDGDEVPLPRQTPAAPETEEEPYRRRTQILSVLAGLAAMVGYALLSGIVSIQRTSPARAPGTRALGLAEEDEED
# Arf2_IPI:IPI00135730.1 (mouse), sequence (Q8BSL7 2-181 limits assumed): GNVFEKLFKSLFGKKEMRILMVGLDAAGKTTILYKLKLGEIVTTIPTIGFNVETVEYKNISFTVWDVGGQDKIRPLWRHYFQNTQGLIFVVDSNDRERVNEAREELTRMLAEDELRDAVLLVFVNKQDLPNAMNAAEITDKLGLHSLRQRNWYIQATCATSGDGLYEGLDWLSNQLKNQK
# Synj2bp_IPI:IPI00109206.1 (mouse), sequence (Q9D6K5 whole entry): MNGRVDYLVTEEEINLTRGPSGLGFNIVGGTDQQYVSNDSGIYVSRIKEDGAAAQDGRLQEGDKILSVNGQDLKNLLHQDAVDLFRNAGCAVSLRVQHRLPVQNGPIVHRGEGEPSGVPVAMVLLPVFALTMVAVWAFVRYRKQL
# Chchd4_IPI:IPI00124389.1 (mouse), sequence (Q8VEA4 whole entry): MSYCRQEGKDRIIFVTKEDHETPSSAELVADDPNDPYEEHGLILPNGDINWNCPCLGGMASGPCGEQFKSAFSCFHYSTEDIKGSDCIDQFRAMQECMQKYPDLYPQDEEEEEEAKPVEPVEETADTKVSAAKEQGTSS
# Rab2a_IPI:IPI00137227.1 (mouse), sequence (P53994 2-212 limits assumed): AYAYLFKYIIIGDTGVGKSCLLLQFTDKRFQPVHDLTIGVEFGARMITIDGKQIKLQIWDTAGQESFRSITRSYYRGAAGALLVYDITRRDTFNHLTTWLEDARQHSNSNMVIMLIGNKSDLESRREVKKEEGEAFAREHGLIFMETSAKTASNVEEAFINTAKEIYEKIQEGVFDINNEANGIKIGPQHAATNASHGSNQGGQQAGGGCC
# Mrpl43_IPI:IPI00278781.1 (mouse), sequence (Q99N89 whole entry): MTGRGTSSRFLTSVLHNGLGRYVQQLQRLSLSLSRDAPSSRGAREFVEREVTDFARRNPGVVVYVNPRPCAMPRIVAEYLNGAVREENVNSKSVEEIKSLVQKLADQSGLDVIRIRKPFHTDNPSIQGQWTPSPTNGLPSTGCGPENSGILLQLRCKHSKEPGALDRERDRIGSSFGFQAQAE
# Hsd17b10_IPI:IPI00320847.1 (mouse), sequence (O08756 2-261 limits assumed): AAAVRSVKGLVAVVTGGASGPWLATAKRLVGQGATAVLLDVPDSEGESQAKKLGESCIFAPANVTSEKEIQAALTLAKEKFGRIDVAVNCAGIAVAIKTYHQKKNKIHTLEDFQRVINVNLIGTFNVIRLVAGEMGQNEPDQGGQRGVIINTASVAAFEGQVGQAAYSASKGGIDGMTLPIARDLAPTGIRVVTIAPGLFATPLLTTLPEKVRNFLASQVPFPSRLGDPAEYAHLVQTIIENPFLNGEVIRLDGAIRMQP
# Rhot1_IPI:IPI00123186.4 (mouse), sequence (Q8BG51 whole entry): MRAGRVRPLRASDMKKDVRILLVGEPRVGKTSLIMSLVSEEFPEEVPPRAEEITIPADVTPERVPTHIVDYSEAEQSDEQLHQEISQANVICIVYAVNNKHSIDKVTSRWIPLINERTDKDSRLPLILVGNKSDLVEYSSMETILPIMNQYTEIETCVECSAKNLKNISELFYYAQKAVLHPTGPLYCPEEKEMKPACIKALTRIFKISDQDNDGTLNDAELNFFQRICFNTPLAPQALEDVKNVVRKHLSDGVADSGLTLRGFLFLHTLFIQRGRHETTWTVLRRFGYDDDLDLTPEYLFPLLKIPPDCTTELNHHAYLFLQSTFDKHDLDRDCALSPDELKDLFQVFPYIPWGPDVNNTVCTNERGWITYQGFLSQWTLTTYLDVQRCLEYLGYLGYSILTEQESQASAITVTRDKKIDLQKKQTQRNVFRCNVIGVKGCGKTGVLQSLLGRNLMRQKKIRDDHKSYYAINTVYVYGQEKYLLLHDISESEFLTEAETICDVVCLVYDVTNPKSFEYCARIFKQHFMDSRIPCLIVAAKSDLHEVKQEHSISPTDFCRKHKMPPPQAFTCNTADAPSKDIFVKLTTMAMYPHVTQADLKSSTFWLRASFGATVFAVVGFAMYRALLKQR
# 2900010M23Rik_IPI:IPI00133350.1 (mouse), sequence (Q9CQY6 whole entry): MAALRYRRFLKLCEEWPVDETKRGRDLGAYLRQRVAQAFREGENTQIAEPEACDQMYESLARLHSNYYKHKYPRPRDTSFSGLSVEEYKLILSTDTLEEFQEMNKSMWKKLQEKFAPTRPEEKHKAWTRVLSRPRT
# Dci_IPI:IPI00114416.1 (mouse), sequence (P42125 29-289 limits assumed): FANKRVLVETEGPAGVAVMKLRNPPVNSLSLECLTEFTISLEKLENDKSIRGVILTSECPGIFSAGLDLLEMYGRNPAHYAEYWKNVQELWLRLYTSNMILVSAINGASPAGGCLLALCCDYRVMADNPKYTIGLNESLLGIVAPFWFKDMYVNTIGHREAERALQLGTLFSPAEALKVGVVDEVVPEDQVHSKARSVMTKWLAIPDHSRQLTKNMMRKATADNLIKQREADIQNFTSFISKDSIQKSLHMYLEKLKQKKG
# Dnajc19_IPI:IPI00111111.5 (mouse), sequence (Q9CQV7 2-116 limits assumed): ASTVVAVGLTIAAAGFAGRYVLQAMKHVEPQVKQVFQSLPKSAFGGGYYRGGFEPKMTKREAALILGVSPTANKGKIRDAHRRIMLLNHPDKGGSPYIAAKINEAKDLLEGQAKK
substance,measurement,setting,value
GST-Httex1-97Q (from UniProt P08515 1-218; P42858 1-88),No. of total peptides,[1],1 peptides
same,No. of unique peptides,[1],1 peptides
same,No. of total peptides,[2],1 peptides
same,No. of unique peptides,[2],1 peptides
same,No. of total peptides,[3],3 peptides
same,No. of unique peptides,[3],3 peptides
same,No. of total peptides,[4],7 peptides
same,No. of unique peptides,[4],6 peptides
same,No. of total peptides,[5],1 peptides
same,No. of unique peptides,[5],1 peptides
same,No. of total peptides,[6],2 peptides
same,No. of unique peptides,[6],2 peptides
same,No. of total peptides,[7],1 peptides
same,No. of unique peptides,[7],1 peptides
same,No. of total peptides,[8],1 peptides
same,No. of unique peptides,[8],1 peptides
same,No. of total peptides,[9],1 peptides
same,No. of unique peptides,[9],1 peptides
same,No. of total peptides,[10],1 peptides
same,No. of unique peptides,[10],1 peptides
same,No. of total peptides,[11],1 peptides
same,No. of unique peptides,[11],1 peptides
same,No. of total peptides,[12],1 peptides
same,No. of unique peptides,[12],1 peptides
same,No. of total peptides,[13],2 peptides
same,No. of unique peptides,[13],2 peptides
same,No. of total peptides,[14],1 peptides
same,No. of unique peptides,[14],1 peptides
same,No. of total peptides,[15],3 peptides
same,No. of unique peptides,[15],3 peptides
same,No. of total peptides,[16],1 peptides
same,No. of unique peptides,[16],1 peptides
same,No. of total peptides,[17],1 peptides
same,No. of unique peptides,[17],1 peptides
same,No. of total peptides,[18],1 peptides
same,No. of unique peptides,[18],1 peptides
same,No. of total peptides,[19],1 peptides
same,No. of unique peptides,[19],1 peptides
same,No. of total peptides,[20],4 peptides
same,No. of unique peptides,[20],4 peptides
same,No. of total peptides,[21],2 peptides
same,No. of unique peptides,[21],2 peptides
same,No. of total peptides,[22],1 peptides
same,No. of unique peptides,[22],1 peptides
same,No. of total peptides,[23],3 peptides
same,No. of unique peptides,[23],3 peptides
same,No. of total peptides,[24],1 peptides
same,No. of unique peptides,[24],1 peptides
same,No. of total peptides,[25],2 peptides
same,No. of unique peptides,[25],2 peptides
same,No. of total peptides,[26],1 peptides
same,No. of unique peptides,[26],1 peptides
same,No. of total peptides,[27],1 peptides
same,No. of unique peptides,[27],1 peptides
same,No. of total peptides,[28],1 peptides
same,No. of unique peptides,[28],1 peptides
same,No. of total peptides,[29],4 peptides
same,No. of unique peptides,[29],3 peptides
same,No. of total peptides,[30],1 peptides
same,No. of unique peptides,[30],1 peptides
same,No. of total peptides,[31],1 peptides
same,No. of unique peptides,[31],1 peptides
same,No. of total peptides,[32],1 peptides
same,No. of unique peptides,[32],1 peptides
same,No. of total peptides,[33],3 peptides
same,No. of unique peptides,[33],3 peptides
